Measured values reported in article PMC5428781, “Novel insights into the interaction of UBA5 with UFM1 via a UFM1-interacting sequence” (Scientific Reports, 2017).
Ends that are not written are not given here. fluorescein = fluorescein label on the N-terminus

Biological target: T1, ubiquitin-fold modifier 1 (UFM1) (human, UniProt P61960 1-83)
T1 construct: ubiquitin-fold modifier 1 (UFM1), human; the form that ends at Gly 83 (the residues missing in the models are counted up to Gly 83); pET15b, N-terminal His6 followed by a TEV site; purified by the protocol of the UBA5 constructs, which removes the tag; In solution a monomer and a fraction of dimer; also called UFM1 WT; UFM1 alone; source: E. coli, purified (His-Trap, TEV cleavage, second …)
Assay: fluorescence polarisation; UFM1 at various concentrations with 120 nM N-terminal fluorescein-labeled UIS peptide; 50 mM Hepes pH 7.5, 150 mM NaCl, 5% glycerol, 0.2 mg/ml BSA; room temperature; triplicate; one site specific binding fit
Settings: both partners purified

T1 sequence (P61960 1-83): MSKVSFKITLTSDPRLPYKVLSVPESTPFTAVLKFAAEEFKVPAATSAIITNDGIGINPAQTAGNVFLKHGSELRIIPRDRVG

fluorescein-IIHEDNEWGIELV (peptide, UniProt Q9GZZ9 334-346, looked up, source: synthetic peptide) [fluorescein-labeled UIS peptide (amino acids 334–346 of UBA5)]
Kd: 8.47 µM
